T1: APBA2_1, Q99767
T1 sequence (Q99767 563-664, limits assumed, looked up): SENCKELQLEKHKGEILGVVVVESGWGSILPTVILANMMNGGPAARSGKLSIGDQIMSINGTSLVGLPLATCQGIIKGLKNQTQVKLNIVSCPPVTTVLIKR

T2: ARHGEF11, O15085
T2 sequence (O15085 42-136, limits assumed, looked up): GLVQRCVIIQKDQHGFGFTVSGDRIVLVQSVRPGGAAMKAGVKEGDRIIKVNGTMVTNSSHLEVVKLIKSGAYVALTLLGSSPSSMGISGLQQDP

T3: GRIP1_2, Q9Y3R0
T3 sequence (Q9Y3R0 145-248, limits assumed, looked up): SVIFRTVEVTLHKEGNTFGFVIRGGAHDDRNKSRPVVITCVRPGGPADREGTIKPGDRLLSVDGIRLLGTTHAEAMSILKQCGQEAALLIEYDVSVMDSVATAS

T4: GRIP1_3, Q9Y3R0
T4 sequence (Q9Y3R0 247-346, limits assumed, looked up): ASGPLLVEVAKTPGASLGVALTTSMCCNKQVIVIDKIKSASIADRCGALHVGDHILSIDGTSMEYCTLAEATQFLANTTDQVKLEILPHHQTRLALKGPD

T5: GRIP1_4, Q9Y3R0
T5 sequence (Q9Y3R0 467-571, limits assumed, looked up): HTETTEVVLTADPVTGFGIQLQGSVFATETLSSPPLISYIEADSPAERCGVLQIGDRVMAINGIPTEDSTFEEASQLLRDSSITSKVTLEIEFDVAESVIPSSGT

T6: LNX2_2, Q8N448
T6 sequence (Q8N448 334-432, limits assumed, looked up): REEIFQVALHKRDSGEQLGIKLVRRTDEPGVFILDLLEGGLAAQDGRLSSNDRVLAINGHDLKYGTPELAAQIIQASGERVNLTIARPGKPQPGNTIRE

T7: MPDZ_12, O75970
T7 sequence (O75970 1857-1958, limits assumed, looked up): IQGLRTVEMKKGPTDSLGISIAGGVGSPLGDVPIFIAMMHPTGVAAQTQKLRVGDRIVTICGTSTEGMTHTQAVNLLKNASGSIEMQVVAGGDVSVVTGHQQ

T8: PDZD7_3, Q9H5P4
T8 sequence (Q9H5P4 857-944, limits assumed, looked up): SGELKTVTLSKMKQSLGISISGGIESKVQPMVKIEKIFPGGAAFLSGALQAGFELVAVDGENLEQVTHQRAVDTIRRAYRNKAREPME

T9: PTPN13_1, Q12923
T9 sequence (Q12923 1088-1188, limits assumed, looked up): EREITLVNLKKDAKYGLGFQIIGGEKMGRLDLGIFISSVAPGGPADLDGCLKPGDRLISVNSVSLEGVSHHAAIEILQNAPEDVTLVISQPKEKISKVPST

T10: SIPA1L2, Q9P2F8
T10 sequence (Q9P2F8 945-1036, limits assumed, looked up): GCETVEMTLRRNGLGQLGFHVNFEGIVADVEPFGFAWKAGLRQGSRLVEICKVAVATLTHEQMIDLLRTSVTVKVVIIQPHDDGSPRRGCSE

T11: SNTA1, Q13424
T11 sequence (Q13424 82-180, limits assumed, looked up): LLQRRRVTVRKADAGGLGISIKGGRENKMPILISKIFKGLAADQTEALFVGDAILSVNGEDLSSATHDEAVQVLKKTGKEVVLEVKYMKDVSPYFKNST

B1: SDK2, Q58EX2 (peptide)
chain: APIAGFSSFV
B2: AQP3, Q92482 (peptide)
chain: LAHVKHKEQI
B3: CCRL2, O00421 (peptide)
chain: REEPDHSTEV
B4: KIRREL1, Q96J84 (peptide)
chain: RFQQRMQTHV

Legend:
Experiment in all cases: holdup assay
Design in all cases: key: below the threshold = too weak to quantify, mostly under pKd 3.1 to 4
Conditions in all cases: plain residues with an end cap or a label only (N-terminal biotin on a linker: ado-ado)
APBA2_1, Q99767 = molecular target: T1, APBA2_1, Q99767
ARHGEF11, O15085 = molecular target: T2, ARHGEF11, O15085
ARHGEF12, Q9NZN5-2 = molecular target: ARHGEF12, Q9NZN5-2
ARHGEF12, Q9NZN5-2, sequence (Q9NZN5 other isoform, or with tags, fused parts or gaps): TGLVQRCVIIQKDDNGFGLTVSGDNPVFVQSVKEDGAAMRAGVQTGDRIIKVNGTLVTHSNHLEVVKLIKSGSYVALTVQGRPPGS

DLG2_2, Q15700 = molecular target: DLG2_2, Q15700
DLG2_3, Q15700 = molecular target: DLG2_3, Q15700
GIPC2, Q8TF65 = molecular target: GIPC2, Q8TF65
GIPC2, Q8TF65, sequence (Q8TF65 112-203): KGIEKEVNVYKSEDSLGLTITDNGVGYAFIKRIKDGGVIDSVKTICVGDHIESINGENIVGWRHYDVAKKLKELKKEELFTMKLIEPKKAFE

GOPC, Q9HD26 = molecular target: GOPC, Q9HD26
GRIP1_2, Q9Y3R0 = molecular target: T3, GRIP1_2, Q9Y3R0
GRIP1_3, Q9Y3R0 = molecular target: T4, GRIP1_3, Q9Y3R0
GRIP1_4, Q9Y3R0 = molecular target: T5, GRIP1_4, Q9Y3R0
GRIP2_7, Q9C0E4 = molecular target: GRIP2_7, Q9C0E4
GRIP2_7, Q9C0E4, sequence (Q9C0E4 934-1023): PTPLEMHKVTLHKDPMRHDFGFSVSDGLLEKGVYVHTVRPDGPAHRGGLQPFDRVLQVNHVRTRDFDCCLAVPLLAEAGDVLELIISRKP

HTRA2, O43464 = molecular target: HTRA2, O43464
HTRA2, O43464, sequence (O43464 355-458): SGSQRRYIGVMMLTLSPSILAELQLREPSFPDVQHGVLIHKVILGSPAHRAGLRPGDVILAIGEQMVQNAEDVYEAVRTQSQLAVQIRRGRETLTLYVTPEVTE

Inadl_1, Q8NI35 = molecular target: Inadl_1, Q8NI35
Inadl_1, Q8NI35, sequence (Q8NI35 113-229): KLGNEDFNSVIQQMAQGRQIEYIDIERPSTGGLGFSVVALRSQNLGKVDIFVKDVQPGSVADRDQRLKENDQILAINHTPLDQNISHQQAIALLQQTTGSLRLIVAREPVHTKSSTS

Inadl_3, Q8NI35 = molecular target: Inadl_3, Q8NI35
Inadl_3, Q8NI35, sequence (Q8NI35 359-469): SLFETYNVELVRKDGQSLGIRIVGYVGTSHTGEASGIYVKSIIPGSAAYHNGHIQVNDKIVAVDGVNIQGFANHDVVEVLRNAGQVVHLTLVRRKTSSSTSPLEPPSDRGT

Inadl_4, Q8NI35 = molecular target: Inadl_4, Q8NI35
Inadl_4, Q8NI35, sequence (Q8NI35 547-651): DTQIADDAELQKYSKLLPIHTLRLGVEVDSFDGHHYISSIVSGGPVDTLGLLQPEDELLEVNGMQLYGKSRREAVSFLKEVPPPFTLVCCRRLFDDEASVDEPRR

LDB3, O75112 = molecular target: LDB3, O75112
LDB3, O75112, sequence (O75112 1-94): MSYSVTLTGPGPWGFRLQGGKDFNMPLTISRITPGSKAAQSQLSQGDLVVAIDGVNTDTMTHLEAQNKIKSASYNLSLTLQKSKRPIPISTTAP

LNX1_2, Q8TBB1 = molecular target: LNX1_2, Q8TBB1
LNX1_2, Q8TBB1, sequence (Q8TBB1 371-470): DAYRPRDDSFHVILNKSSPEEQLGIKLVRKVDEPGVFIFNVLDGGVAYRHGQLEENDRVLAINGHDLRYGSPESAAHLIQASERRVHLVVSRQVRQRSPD

LNX2_2, Q8N448 = molecular target: T6, LNX2_2, Q8N448
MAST2, Q6P0Q8 = molecular target: MAST2, Q6P0Q8
MAST2, Q6P0Q8, sequence (Q6P0Q8 1099-1202): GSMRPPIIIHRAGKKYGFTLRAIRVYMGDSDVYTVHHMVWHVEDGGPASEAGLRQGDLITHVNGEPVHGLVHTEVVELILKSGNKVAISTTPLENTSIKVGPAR

MPDZ_12, O75970 = molecular target: T7, MPDZ_12, O75970
PDLIM1, O00151 = molecular target: PDLIM1, O00151
PDLIM1, O00151, sequence (O00151 1-87): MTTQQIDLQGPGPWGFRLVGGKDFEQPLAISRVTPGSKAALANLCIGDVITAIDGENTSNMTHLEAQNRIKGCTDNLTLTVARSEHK

PDZD7_3, Q9H5P4 = molecular target: T8, PDZD7_3, Q9H5P4
PICK1, Q9NRD5 = molecular target: PICK1, Q9NRD5
PICK1, Q9NRD5, sequence (Q9NRD5 17-115): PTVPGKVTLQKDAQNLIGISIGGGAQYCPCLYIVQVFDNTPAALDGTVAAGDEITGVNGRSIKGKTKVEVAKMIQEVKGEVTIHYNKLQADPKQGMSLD

PTPN13_1, Q12923 = molecular target: T9, PTPN13_1, Q12923
SCRIB_1, Q14160 = molecular target: SCRIB_1, Q14160
SCRIB_1, Q14160, sequence (Q14160 718-814): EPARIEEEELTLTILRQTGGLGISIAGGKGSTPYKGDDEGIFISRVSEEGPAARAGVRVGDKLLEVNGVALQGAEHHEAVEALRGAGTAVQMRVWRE

SIPA1L2, Q9P2F8 = molecular target: T10, SIPA1L2, Q9P2F8
SNTA1, Q13424 = molecular target: T11, SNTA1, Q13424

pKd (APBA2_1, Q99767)	pKd (ARHGEF11, O15085)	pKd (ARHGEF12, Q9NZN5-2)	pKd (DLG2_2, Q15700)	pKd (DLG2_3, Q15700)	pKd (GIPC2, Q8TF65)	pKd (GOPC, Q9HD26)	pKd (GRIP1_2, Q9Y3R0)	pKd (GRIP1_3, Q9Y3R0)	pKd (GRIP1_4, Q9Y3R0)	pKd (GRIP2_7, Q9C0E4)	pKd (HTRA2, O43464)	pKd (Inadl_1, Q8NI35)	pKd (Inadl_3, Q8NI35)	pKd (Inadl_4, Q8NI35)	pKd (LDB3, O75112)	pKd (LNX1_2, Q8TBB1)	pKd (LNX2_2, Q8N448)	pKd (MAST2, Q6P0Q8)	pKd (MPDZ_12, O75970)	further results	Binder
below the threshold	3.72	4.14	3.86	below the threshold	below the threshold	4.13	below the threshold	below the threshold	below the threshold	below the threshold	4.07	below the threshold	3.86	below the threshold	below the threshold	below the threshold	4.13	4.73	4.37	pKd (PDLIM1, O00151): below the threshold; pKd (PDZD7_3, Q9H5P4): 4.63; pKd (PICK1, Q9NRD5): below the threshold; pKd (PTPN13_1, Q12923): below the threshold; pKd (SCRIB_1, Q14160): below the threshold; pKd (SIPA1L2, Q9P2F8): below the threshold; pKd (SNTA1, Q13424): 4.09	B1
below the threshold	below the threshold	below the threshold	below the threshold	below the threshold	below the threshold	below the threshold	below the threshold	below the threshold	below the threshold	below the threshold	below the threshold	below the threshold	below the threshold	below the threshold	below the threshold	below the threshold	below the threshold	below the threshold	below the threshold	pKd (PDLIM1, O00151): below the threshold; pKd (PDZD7_3, Q9H5P4): below the threshold; pKd (PICK1, Q9NRD5): 3.98; pKd (PTPN13_1, Q12923): below the threshold; pKd (SCRIB_1, Q14160): below the threshold; pKd (SIPA1L2, Q9P2F8): below the threshold; pKd (SNTA1, Q13424): below the threshold	B2
below the threshold	4.77	4.37	4.5	below the threshold	4.01	3.56	3.5	below the threshold	below the threshold	below the threshold	3.54	below the threshold	3.85	below the threshold	below the threshold	3.65	4.09	5.3	below the threshold	pKd (PDLIM1, O00151): 3.53; pKd (PDZD7_3, Q9H5P4): 4.31; pKd (PICK1, Q9NRD5): below the threshold; pKd (PTPN13_1, Q12923): below the threshold; pKd (SCRIB_1, Q14160): 4.03; pKd (SIPA1L2, Q9P2F8): below the threshold; pKd (SNTA1, Q13424): 4.45	B3
below the threshold	4.19	4.44	4.44	4.48	below the threshold	3.91	below the threshold	below the threshold	below the threshold	3.52	below the threshold	below the threshold	below the threshold	below the threshold	below the threshold	below the threshold	4.08	5.73	below the threshold	pKd (PDLIM1, O00151): below the threshold; pKd (PDZD7_3, Q9H5P4): 4.5; pKd (PICK1, Q9NRD5): below the threshold; pKd (PTPN13_1, Q12923): below the threshold; pKd (SCRIB_1, Q14160): 4.25; pKd (SIPA1L2, Q9P2F8): below the threshold; pKd (SNTA1, Q13424): below the threshold	B4

— PMC9482650, “Quantitative fragmentomics allow affinity mapping of interactomes” (Nature Communications, 2022)
